The values below come from doi:10.1101/2020.09.01.278291 (bioRxiv, 2020).

In the test the target is LRH-1 ligand binding domain (LBD), residues 299-541, His tag cleaved (human, UniProt O00482 299-541). Put plainly: crystal structure.
Sequence of LRH-1 ligand binding domain (LBD), residues 299-541, His tag cleaved (O00482 299-541): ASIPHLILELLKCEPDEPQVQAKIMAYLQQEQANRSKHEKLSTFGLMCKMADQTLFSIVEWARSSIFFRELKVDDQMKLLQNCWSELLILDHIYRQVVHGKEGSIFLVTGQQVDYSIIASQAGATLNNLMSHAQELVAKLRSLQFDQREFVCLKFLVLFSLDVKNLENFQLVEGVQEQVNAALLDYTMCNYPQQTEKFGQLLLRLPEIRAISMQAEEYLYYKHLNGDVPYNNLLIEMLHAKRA

KENALLRYLLDK [Tif2 peptide (transcriptional intermediary factor 2 coregulator peptide)]: the binding result was “binds”.
